Data as given in the RNAGym collection of RNA variant scans (doi:10.1073/pnas.2313332121).

B1: TPR t1 (parent)
chain: GACCAAUCUGCCCUCAGAGCUCGAGAACAUCUUCGGAUGCAGAGGAGGCAGGCUUCGGUGGCGCGAUAGCGCCAACGUCCUCAACCUCCAAUGCAUCCCACCACAUGAUGAUGCCUGAAGAGCCUUGGUUUUUUG

Variants of: B1
Assay: polymerase ribozyme fitness, log enrichment relative to wild type (log ratio); higher = more active; in vitro selection for triplet polymerase activity
Outline: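 Each subunit of a heterodimeric triplet polymerase ribozyme was mutagenized into a library by PCR, transcribed, and subjected to one round of in vitro selection, run in triplicate. Libraries were annealed with a biotinylated primer, the partner subunit and triplets, incubated frozen at −7 °C, and extended constructs were gel-excised, captured on streptavidin beads and recovered by RT-PCR. Input and output libraries were sequenced on Illumina, keeping genotypes with ≥10 input reads and ≥1 read per output. Fitness is log base 2 of genotype enrichment divided by wild-type enrichment, from inverse-variance-weighted replicate averages.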

Which “polymerase ribozyme fitness (log ratio)” value does the source give for GACCAAUCUGCCCUCAGGGCUCGAGAACAUCUUCGGAUUCAGAGGAGGCAGGCUUCGGUGGCGCGAUAGCGCCAACGUCCUCAACCUCCAAUGCAUCCCACCACAUGAUGAUGCCUGAAGAGCCUUGGUUUUUUG here?
Its value is -3.93.

With GACCAAUCUGCCCUCAGGCCUCGAGAACAUCUUCGGAUGCAGAGGAGGCAGGUUUCGGUGGCGCGAUAGCGCCAACGUCCUCAACCUCCAAUGCAUCCCACCACAUGAUGUUGCCUGAAGAGCCUUGGUUUUUUG as the variant, how does the “polymerase ribozyme fitness (log ratio)” value read?
Its value is -4.72.

For GACCAAUCUGCCCUCAGUGCUCGAGGACAUCUUCGGAUGCAGAGGAGGCAGGCUUUGGUGGCGCGAUAGCGCCAACGUCCUCAACCUCCAAUGCAUCCCACCACAUGAUGAUGCCUGAAGAGGCUUGGUUUUUUG, which “polymerase ribozyme fitness (log ratio)” value is on record?
The value was -0.0936.

For GACCAAUCUGCCCUCAGGGCUCAAGAACAUCUUCGGAUGCAGAGGAGGCAGGUUUCGGCGGCGCGAUAGCGCCAACGUACUCAACCUCCAAUGCAUCCCACCACAUGAUGAUGCCUCAAGAGCCUUGGUUUUCUG, which “polymerase ribozyme fitness (log ratio)” value is on record?
Its value is -5.37.

For GACCAAUCUGCCCUCAGGGCUCGAGAACAUCUUCGGAUGCAGAGGAGGCAGGCAUCGGUGGCGCGAUAGCGCCAACAUCCUCAACCUCCAAUGCAUCCCACCACAUGAGGAUGCCUGAAGAGCCUUGGUUUUUUG, which “polymerase ribozyme fitness (log ratio)” value is on record?
Its value is -3.13.

For GACCAAUCUGCCCUCAGUGCUCGAGCACAUCUUCGGAUGCAGAGGAGGCAGGCUUCGGUGGUGCGAUAGCGCCAACGUCCUCAACCUCCAAUGCAUCCCACCACAUGAUGAUGCCUGAACAGCCUGGGUUUUUUG, which “polymerase ribozyme fitness (log ratio)” value is on record?
The value was -7.02.

With GACCAAUCUGCCCUCAGGACUCGAGAACAUCUUCGGAUGCAGAGGAGGCAGGCUUCGGUGGCGCGAUAGCGCCAACGUCCUCAACCUCCAAUGCACCCCACCACAUGAUGAUGCAUGAAGAGCCUUGGUUUUUUG as the variant, how does the “polymerase ribozyme fitness (log ratio)” value read?
Its value is -4.42.

Which “polymerase ribozyme fitness (log ratio)” value does the source give for GACCAAUCUGCCCUCAGGGCUCGAGAACAUCUUCGGAUACAGAGGAGGCAGGCUUCGGUGGCGAGAUAGCGCCAACGUCCUCAACCUCCGAUGCAUCCCACCACAUGAUGAUGCCUGAACAGCCUUGGUUUUUUG here?
Its value is -5.87.

With GACCAAUCUGCCCUCAGUGCUCGAGAACGUCUUCGGAUGCAGAGGAGGCAGGCUUAGGUGGCGCGAUAGCGCCAACGUCAUCAACCUCCAAUGCAUCCCACCACAUGAUGAUGCCUGAAGAGCCUUGGUUUUUUG as the variant, how does the “polymerase ribozyme fitness (log ratio)” value read?
The value was -6.14.

Which “polymerase ribozyme fitness (log ratio)” value does the source give for GACCAAUCUGCCCUCAGGUCUCGAGAACAUCUUCGGAUGCAGAGGCGGCAGGCUUAGGUGGCGCGAUAGCGCCAACGUCCUCAACCACCAAUGCAUCCCACCACAUGAUGAUGCCUGAAGAGCCUUGGUUUUUUG here?
Its value is -2.82.

For GACCAAUCUGCCCUCAGGGCUCGAGAACAUCUUCGAAUGCAGAGGAGGCAGGCUUCGGUGACGCGAUAGCGCCAACGUCCUCAACCUCCAAUGCAUCCCACCACAUGAUGAUGCCCGGAGAGCCUUGGUUUUUUG, which “polymerase ribozyme fitness (log ratio)” value is on record?
Its value is -3.23.

With GACCAAUCUGCCCUCAGGGCUCGAGAACAUCUUCGGAUGCAGAGGAGGCAGGCAUCGGUGGCGCGAUAGCGCCAACGUCCUCAACCUGCAAUGCAUCCCACCACAUGAUGCUCCCUGAAGAGCCAUGGUUUUUUG as the variant, how does the “polymerase ribozyme fitness (log ratio)” value read?
The value was -3.51.

With GACCAAUCUGCCCUCAGGACUCGAGAACAUCUUCGGAUGCAGAGGAGGCAGGCUUCGGUGGCGCGAUAGCGCCAACGUCCUCAACCUCCAAUGCAUCCCACCACAUGAUGAUGCCUGAAGAGCCUUGGUUUUUUG as the variant, how does the “polymerase ribozyme fitness (log ratio)” value read?
The value was -1.4.

For GACCAAUCUGCCCUCAGGGCUCGAGAACAUCUUCGGAUGCAGAGGAGACAGGCUUCGGUGGCACGAUAGCGCCAACAUCCCCAACCUCCAAUGCAUCCCACCACAUGAUGAUGCCUGAAGUGCCUGGGUUUUUUG, which “polymerase ribozyme fitness (log ratio)” value is on record?
The value was -5.32.

For GACCAAUCUGCCCUCAGGGCUCGAGAACAUCUUCGGAUGCAGAGGAGGCAGCCUUCGGUGGCGCGAUAGCGCCAACGUCCUCAACCUCCAAUGCAUCCCACCACAUGAUGAUGCCUGAAGAGCCUUGGUUUUUUG, which “polymerase ribozyme fitness (log ratio)” value is on record?
The value was -3.49.

With GACCAAUCUGCCCUCAGGGCUCGAGAACAUCUUCGGAUGCAGAGGAGGCAGGCUUCGGUGGCGCGAUAGCGCCAACGCCCUCAACCUCCAAUGCAUCCCACCACAUGAUGAUGCCUGAAGAGCCUUGGUUUUUUG as the variant, how does the “polymerase ribozyme fitness (log ratio)” value read?
The value was -2.98.

For GACCAAUCUGCCCUCAGGGCUCGAGAACAUCUUCGGAUGCAGAGGAGGCAGGCUUCGGUGGCGCGAUAGCGCCAACGUCCUCAACCUCCAAUGCAUCCCACCACAUGAUGAUGCCUGAAGAGCCUUGGCUUUUUG, which “polymerase ribozyme fitness (log ratio)” value is on record?
Its value is -4.73.

Which “polymerase ribozyme fitness (log ratio)” value does the source give for GACCAAUCUGCCCUCAGGGCUCGAGAACAUCUUCGGAUGCAGAGGAGGCAGGCUUCGGUGGCGCGAUAGCGCCAACGUCCUCAACCUCCAAUGCAUCCCACCACAUGAUGAUGCCUGAAGAGCCUUGGUGUUUUG here?
Its value is -4.25.

With GACCAAUCUGCCCUCAGUGCUCGGGAACAUCUUCGGAUGCAGAGGAGGCAGGCUUCGGUGGCGCGAUAGCGUUAACGUCCUCAACCUCCAAUGCAUCCCACCACAUGAUGAUGCCUGAAGAGCCUUGGUUUUUUG as the variant, how does the “polymerase ribozyme fitness (log ratio)” value read?
The value was -4.35.

Which “polymerase ribozyme fitness (log ratio)” value does the source give for GACCAAUCUGCCCUCAGGGCUCGAGAACAUCUUCGGAUGCAGAGGAGGCAGGCUUCGGUGGCGCGAUAGUGCCAACGUCCUCAACCUCCAAUGCUUCCCACCACAUGAUGAUGCCUGAAGAGCAUUGGUUUUUUG here?
Its value is -4.13.

For GACCAAUCUGCCCUCAGGGCUCGAGAACAUCUUCGGAUGCAGAGGAGGCAGGCUUCGGUGGCGCGAUAGCGCCAACGUCCUCAACCUCCAAUGCAUCCCAGCACAUGAUGAUGCCUCAAGAGCCUUGGUUUUUUG, which “polymerase ribozyme fitness (log ratio)” value is on record?
The value was -4.66.
